Reference: the supplement of paper PMC9112550, “Optimization of the antimicrobial peptide Bac7 by deep mutational scanning” (BMC Biology, 2022)

The sequences below were run on Escherichia coli TOP10 (assay: shrunken log2 fold change of peptide-encoding DNA abundance (4.5 h post-induction vs induction); higher = less antimicrobial activity (less host growth inhibition)). Conditions: time post-induction: 4.5 h; library: site-saturation at positions 5, 18, 19, 20.
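Further: peptides expressed intracellularly from a pBAD plasmid library in pooled LB shake-flask culture, induced with 0.3% L-arabinose, DNA abundance read by NGS, three biological replicates, DESeq2 with apeglm shrinkage.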

In order of rising “shrunken log2 fold change” value:
1. RRIRIRPPRLPRPRPRPNNHPRP  -1.03
2. RRIRNRPPRLPRPRPRPIYYPRP  -0.977
3. RRIRTRPPRLPRPRPRPLYCPRP  -0.715
4. RRIRIRPPRLPRPRPRPPYHPRP  -0.652
5. RRIRCRPPRLPRPRPRPCYWPRP  -0.595
6. RRIRLRPPRLPRPRPRPNMIPRP  -0.571
7. RRIRFRPPRLPRPRPRPSFRPRP  -0.433
8. RRIRVRPPRLPRPRPRPSEYPRP  -0.418
9. RRIRKRPPRLPRPRPRPSNVPRP  -0.343
10. RRIRKRPPRLPRPRPRPNNGPRP  -0.324
11. RRIRLRPPRLPRPRPRPKFIPRP  -0.304
12. RRIRIRPPRLPRPRPRPVEMPRP  -0.299
13. RRIRERPPRLPRPRPRPAHMPRP  -0.291
14. RRIRSRPPRLPRPRPRPNQLPRP  -0.218
15. RRIRNRPPRLPRPRPRPVNPPRP  -0.216
16. RRIRPRPPRLPRPRPRPVHIPRP  -0.208
17. RRIRARPPRLPRPRPRPYGAPRP  -0.206
18. RRIRYRPPRLPRPRPRPGFFPRP  -0.205
19. RRIRRRPPRLPRPRPRPFHLPRP  -0.184
20. RRIRIRPPRLPRPRPRPTNGPRP  -0.166
21. RRIRPRPPRLPRPRPRPDQEPRP  -0.151
22. RRIRARPPRLPRPRPRPMFPPRP  -0.147
23. RRIRRRPPRLPRPRPRPYQSPRP  -0.145
24. RRIRIRPPRLPRPRPRPHFCPRP  -0.139
25. RRIRYRPPRLPRPRPRPGHHPRP  -0.132
26. RRIRVRPPRLPRPRPRPKYSPRP  -0.122
27. RRIRKRPPRLPRPRPRPCCQPRP  -0.102
28. RRIRSRPPRLPRPRPRPYDNPRP  -0.0962
29. RRIRARPPRLPRPRPRPRYFPRP  -0.0939
30. RRIRCRPPRLPRPRPRPWDMPRP  -0.0934
31. RRIRHRPPRLPRPRPRPEWVPRP  -0.086
32. RRIRSRPPRLPRPRPRPHRKPRP  -0.077
33. RRIRPRPPRLPRPRPRPVCHPRP  -0.0724
34. RRIRKRPPRLPRPRPRPDSTPRP  -0.0499
35. RRIRPRPPRLPRPRPRPQGRPRP  -0.0433
36. RRIRCRPPRLPRPRPRPEGSPRP  -0.043
37. RRIRWRPPRLPRPRPRPHMQPRP  -0.0363
38. RRIRWRPPRLPRPRPRPADFPRP  -0.0275
39. RRIRPRPPRLPRPRPRPKTLPRP  -0.0149
40. RRIRYRPPRLPRPRPRPRNEPRP  -0.0133
41. RRIRDRPPRLPRPRPRPCKKPRP  -0.00395
42. RRIRERPPRLPRPRPRPAWGPRP  -0.00226
43. RRIRWRPPRLPRPRPRPDHTPRP  -0.000848
44. RRIRDRPPRLPRPRPRPIPNPRP  0.0139
45. RRIRQRPPRLPRPRPRPNCGPRP  0.0184
46. RRIRFRPPRLPRPRPRPNWKPRP  0.0201
47. RRIRCRPPRLPRPRPRPFYWPRP  0.0228
48. RRIRARPPRLPRPRPRPCEKPRP  0.0244
49. RRIRCRPPRLPRPRPRPMLCPRP  0.0786
50. RRIRTRPPRLPRPRPRPMKIPRP  0.0884
51. RRIRFRPPRLPRPRPRPNRGPRP  0.149
52. RRIRARPPRLPRPRPRPKNVPRP  0.166
53. RRIRPRPPRLPRPRPRPPFTPRP  0.185
54. RRIRIRPPRLPRPRPRPAAEPRP  0.197
55. RRIRCRPPRLPRPRPRPTQAPRP  0.199
56. RRIRARPPRLPRPRPRPMDGPRP  0.211
57. RRIRPRPPRLPRPRPRPQTRPRP  0.227
58. RRIRSRPPRLPRPRPRPPHEPRP  0.229
59. RRIRWRPPRLPRPRPRPLWDPRP  0.235
60. RRIRRRPPRLPRPRPRPTAQPRP  0.244
61. RRIRHRPPRLPRPRPRPDRWPRP  0.255
62. RRIRARPPRLPRPRPRPEKKPRP  0.275
63. RRIRHRPPRLPRPRPRPLAAPRP  0.325
64. RRIRRRPPRLPRPRPRPARHPRP  0.447
65. RRIRSRPPRLPRPRPRPTLDPRP  0.47
66. RRIRQRPPRLPRPRPRPPQQPRP  0.497
67. RRIRGRPPRLPRPRPRPICKPRP  0.616
68. RRIRGRPPRLPRPRPRPPSFPRP  0.653
69. RRIRARPPRLPRPRPRPASDPRP  0.661
70. RRIRDRPPRLPRPRPRPVCAPRP  1.12
71. RRIRDRPPRLPRPRPRPLAEPRP  1.17
72. RRIRARPPRLPRPRPRPPPDPRP  1.18
73. RRIRKRPPRLPRPRPRPEPTPRP  1.47
74. RRIRKRPPRLPRPRPRPHPHPRP  2.25
75. RRIRGRPPRLPRPRPRPDATPRP  4.21
